B1: DNA02 (dsDNA)
DNA 1: GGGTAACCACTGTTACCC
DNA 2: GGGTAACAGTGGTTACCC
B2: DNA01 (dsDNA)
DNA 1: GGGTAGCATATGCTACCC
DNA 2: GGGTAGCATATGCTACCC

Biological target: EBNA1 DBD (Epstein-Barr virus (strain B95.8), UniProt P03211 461-607)
Assay: fluorescence polarization; EC50; 1 mM MgCl2; FP: 200 mM NaCl, 20 mM Tris-HCl pH 7.5, 1 mM MgCl2, 0.01% CHAPS; 20 nM FAM probe stock mixed 1:1 with 0.31-20 µM protein, 20 min; temperature not stated
Conditions: protein: recombinant, tags: N-terminal 6xHis-SUMO, removed by ULP1, chain copies: 2, label: 5'-FAM, called 18-bp

Chain of EBNA1 DBD (P03211 461-607): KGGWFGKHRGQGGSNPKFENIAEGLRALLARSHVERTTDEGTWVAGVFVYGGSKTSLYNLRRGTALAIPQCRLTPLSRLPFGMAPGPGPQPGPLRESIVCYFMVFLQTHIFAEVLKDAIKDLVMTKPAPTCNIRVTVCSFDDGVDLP

Row | Binder | apparent K (half saturation) (only the FAM strand is printed, complement implied) [nM] | apparent K (half saturation) (blunt, one self-complementary strand printed, 2 copies) [nM]
1 | B1 | 1540 | 
2 | B2 |  | 2130

Source: publication PMC11467371, “Structure‐based design of antibodies targeting the EBNA1 DNA‐binding domain to block Epstein–Barr virus latent infection and tumor growth”
